Laboratory results as given in US20180155451A1 (published 2018).

T1: FcgRIIb extracellular domain with C-terminal His tag (human, UniProt P31994 43-217)
T1 construct: extracellular domain; also called FcγRIIb; not shown: His tag attached to the C terminus
T1 sequence (looked up): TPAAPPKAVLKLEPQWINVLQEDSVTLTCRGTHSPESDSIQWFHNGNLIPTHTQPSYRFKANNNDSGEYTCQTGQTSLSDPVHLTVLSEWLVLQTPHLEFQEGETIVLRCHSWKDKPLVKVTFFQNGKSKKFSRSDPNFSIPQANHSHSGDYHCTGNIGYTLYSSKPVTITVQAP


Tests used:
[1] = molecular target: T2, FcgRIIIa F extracellular domain with C-terminal His tag (human, UniProt P08637 17-208); test: ratio of SPR (Biacore) KDs, FcγRIIb as reference
T2 construct: extracellular domain; also called FcγRIIIa F; FcγRIIIa (F158); not shown: His tag attached to the C terminus
Method: (§1) The prepared antibodies were assayed as to the KDs for FcγRIIIa and FcγRIIb according to the method described in Reference Example 2.
(§2) Analysis of interaction between objective antibody and the FcγR was carried out using Biacore T100 (GE Healthcare). HBS-EP+ (GE Healthcare) was used as the running buffer, and the measurement temperature was set to 25° C. Chips produced by immobilizing the antigen peptide by the amine coupling method to a Series S Sencor Chip CM5 (GE Healthcare), or alternatively, chips produced by allowing preliminarily biotinylated antigen peptides to interact with and immobilize onto a Series S Sensor Chip SA (certified) (GE Healthcare) were used. Antibodies of interest were captured onto an antigen peptide-immobilized chip, and allowed to interact to each FcγR diluted with running buffer. To regenerate and repeatedly use the chip, the antibodies captured on the chip were washed off by reacting 10 mM glycine-HCl, pH 1.5.
(§3) The FcγR-binding activity of each antibody was assessed primarily using as an indicator the FcγR-binding activity and dissociation constant for FcγR.

[2] = molecular target: T2, FcgRIIIa F extracellular domain with …; test: SPR (Biacore T100), antibody captured on antigen peptide chip, FcγR extracellular domain as analyte, kinetic analysis
Method: as §1, §2, §3

[3] = molecular target: T1, FcgRIIb extracellular domain with …; test: as above
Method: as §1, §2, §3

T2 sequence (P08637 17-208): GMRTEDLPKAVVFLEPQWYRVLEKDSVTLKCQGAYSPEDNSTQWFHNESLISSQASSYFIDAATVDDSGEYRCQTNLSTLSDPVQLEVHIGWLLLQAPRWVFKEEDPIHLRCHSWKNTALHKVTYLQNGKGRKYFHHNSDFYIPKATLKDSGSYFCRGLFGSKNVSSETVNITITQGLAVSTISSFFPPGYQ

| Binder | FcγRIIIa F/FcγRIIb ratio (KD for FcγRIIb / KD for FcγRIIIa F) [1] | Kd [2] [nM] | Kd [3] [nM] |
| --- | --- | --- | --- |
| GpH7-A57/GpH7-B78/GpL16-k0 (antibody, human IgG1, kappa, S239D/A330L/I332E in both H chains (called homodimerized); also called A57/B78) heavy 1: QVQLVQSGAEVKKPGASVTVSCKASGYTFTDYEMHWIRQPPGEGLEWIGAIDPKTGDTAYSESFQDRVTLTADKSTSTAYMELSSLTSEDTAVYYCTRFYSYTYWGQGTLVTVSSASTKGPSVFPLAPSSKSTSGGTAALGCLVKDYFPEPVTVSWNSGALTSGVHTFPAVLQSSGLYSLSSVVTVPSSSLGTQTYICNVNHKPSNTKVDKKVEPKSCDKTHTCPPCPAPELLGGPDVFLFPPKPKDTLMISRTPEVTCVVVDVSHEDPEVKFNWYVDGVEVHNAKTKPREEQYNSTYRVVSVLTVLHQDWLNGKEYKCKVSNKALPLPEEKTISKAKGQPREPQVYTLPPSRKELTKNQVSLTCLVKGFYPSDIAVEWESNGQPENNYKTTPPVLDSDGSFFLYSKLTVDKSRWQQGNVFSCSVMHEALHNRYTQKSLSLSP heavy 2: QVQLVQSGAEVKKPGASVTVSCKASGYTFTDYEMHWIRQPPGEGLEWIGAIDPKTGDTAYSESFQDRVTLTADKSTSTAYMELSSLTSEDTAVYYCTRFYSYTYWGQGTLVTVSSASTKGPSVFPLAPSSKSTSGGTAALGCLVKDYFPEPVTVSWNSGALTSGVHTFPAVLQSSGLYSLSSVVTVPSSSLGTQTYICNVNHKPSNTKVDKKVEPKSCDKTHTCPPCPAPELLGGPDVFLFPPKPKDTLMISRTPEVTCVVVDVSHEDPEVKFNWYVDGVEVHNAKTKPREEQYNSTYRVVSVLTVLHQDWLNGKEYKCKVSNKALPLPEEKTISKAKGQPREPQVYTLPPSRDELTKNQVSLTCLVKGFYPSDIAVEWESNGQPENNYKTTPPVLDSDGSFFLYSKLTVDKSRWQQGNVFSCSVMHEALHNHYTQESLSLSP light: DIVMTQSPLSLPVTPGEPASISCQASESLVHSNRNTYLHWYLQKPGQSPQLLIYKVSNRFSGVPDRFSGSGSGTDFTLKISRVEAEDVGVYYCSQNTHVPPTFGQGTKVEIERTVAAPSVFIFPPSDEQLKSGTASVVCLLNNFYPREAKVQWKVDNALQSGNSQESVTEQDSKDSTYSLSSTLTLSKADYEKHKVYACEVTHQGLSSPVTKSFNRGEC | 100 | 6.2 | 610 |
| GpH7-TA7/GpH7-TA45/GpL16-k0 (antibody, human IgG1, kappa, L234Y/G236W/S298A in both H chains (called homodimerized); also called TA7/TA45) heavy 1: QVQLVQSGAEVKKPGASVTVSCKASGYTFTDYEMHWIRQPPGEGLEWIGAIDPKTGDTAYSESFQDRVTLTADKSTSTAYMELSSLTSEDTAVYYCTRFYSYTYWGQGTLVTVSSASTKGPSVFPLAPSSKSTSGGTAALGCLVKDYFPEPVTVSWNSGALTSGVHTFPAVLQSSGLYSLSSVVTVPSSSLGTQTYICNVNHKPSNTKVDKKVEPKSCDKTHTCPPCPAPEYLWGPSVFLFPPKPKDTLMISRTPEVTCVVVDVSHEDPEVKFNWYVDGVEVHNAKTKPREEQYNATYRVVSVLTVLHQDWLNGKEYKCKVSNKALPAPIEKTISKAKGQPREPQVYTLPPSRKELTKNQVSLTCLVKGFYPSDIAVEWESNGQPENNYKTTPPVLDSDGSFFLYSKLTVDKSRWQQGNVFSCSVMHEALHNRYTQKSLSLSP heavy 2: QVQLVQSGAEVKKPGASVTVSCKASGYTFTDYEMHWIRQPPGEGLEWIGAIDPKTGDTAYSESFQDRVTLTADKSTSTAYMELSSLTSEDTAVYYCTRFYSYTYWGQGTLVTVSSASTKGPSVFPLAPSSKSTSGGTAALGCLVKDYFPEPVTVSWNSGALTSGVHTFPAVLQSSGLYSLSSVVTVPSSSLGTQTYICNVNHKPSNTKVDKKVEPKSCDKTHTCPPCPAPEYLWGPSVFLFPPKPKDTLMISRTPEVTCVVVDVSHEDPEVKFNWYVDGVEVHNAKTKPREEQYNATYRVVSVLTVLHQDWLNGKEYKCKVSNKALPAPIEKTISKAKGQPREPQVYTLPPSRDELTKNQVSLTCLVKGFYPSDIAVEWESNGQPENNYKTTPPVLDSDGSFFLYSKLTVDKSRWQQGNVFSCSVMHEALHNHYTQESLSLSP light: DIVMTQSPLSLPVTPGEPASISCQASESLVHSNRNTYLHWYLQKPGQSPQLLIYKVSNRFSGVPDRFSGSGSGTDFTLKISRVEAEDVGVYYCSQNTHVPPTFGQGTKVEIERTVAAPSVFIFPPSDEQLKSGTASVVCLLNNFYPREAKVQWKVDNALQSGNSQESVTEQDSKDSTYSLSSTLTLSKADYEKHKVYACEVTHQGLSSPVTKSFNRGEC | 5.3 | 3300 | 18000 |
| GpH7-TA7/GpH7-B78/GpL16-k0 (antibody, human IgG1, kappa, L234Y/G236W/S298A in one H chain, S239D/A330L/I332E in the other; also called TA7/B78) heavy 1: QVQLVQSGAEVKKPGASVTVSCKASGYTFTDYEMHWIRQPPGEGLEWIGAIDPKTGDTAYSESFQDRVTLTADKSTSTAYMELSSLTSEDTAVYYCTRFYSYTYWGQGTLVTVSSASTKGPSVFPLAPSSKSTSGGTAALGCLVKDYFPEPVTVSWNSGALTSGVHTFPAVLQSSGLYSLSSVVTVPSSSLGTQTYICNVNHKPSNTKVDKKVEPKSCDKTHTCPPCPAPEYLWGPSVFLFPPKPKDTLMISRTPEVTCVVVDVSHEDPEVKFNWYVDGVEVHNAKTKPREEQYNATYRVVSVLTVLHQDWLNGKEYKCKVSNKALPAPIEKTISKAKGQPREPQVYTLPPSRKELTKNQVSLTCLVKGFYPSDIAVEWESNGQPENNYKTTPPVLDSDGSFFLYSKLTVDKSRWQQGNVFSCSVMHEALHNRYTQKSLSLSP heavy 2: QVQLVQSGAEVKKPGASVTVSCKASGYTFTDYEMHWIRQPPGEGLEWIGAIDPKTGDTAYSESFQDRVTLTADKSTSTAYMELSSLTSEDTAVYYCTRFYSYTYWGQGTLVTVSSASTKGPSVFPLAPSSKSTSGGTAALGCLVKDYFPEPVTVSWNSGALTSGVHTFPAVLQSSGLYSLSSVVTVPSSSLGTQTYICNVNHKPSNTKVDKKVEPKSCDKTHTCPPCPAPELLGGPDVFLFPPKPKDTLMISRTPEVTCVVVDVSHEDPEVKFNWYVDGVEVHNAKTKPREEQYNSTYRVVSVLTVLHQDWLNGKEYKCKVSNKALPLPEEKTISKAKGQPREPQVYTLPPSRDELTKNQVSLTCLVKGFYPSDIAVEWESNGQPENNYKTTPPVLDSDGSFFLYSKLTVDKSRWQQGNVFSCSVMHEALHNHYTQESLSLSP light: DIVMTQSPLSLPVTPGEPASISCQASESLVHSNRNTYLHWYLQKPGQSPQLLIYKVSNRFSGVPDRFSGSGSGTDFTLKISRVEAEDVGVYYCSQNTHVPPTFGQGTKVEIERTVAAPSVFIFPPSDEQLKSGTASVVCLLNNFYPREAKVQWKVDNALQSGNSQESVTEQDSKDSTYSLSSTLTLSKADYEKHKVYACEVTHQGLSSPVTKSFNRGEC | 244 | 4.7 | 1100 |
| GpH7-TA7/GpH7-B3/GpL16-k0 (antibody, human IgG1, kappa, L234Y/G236W/S298A in one H chain only; also called TA7/B3) heavy 1: QVQLVQSGAEVKKPGASVTVSCKASGYTFTDYEMHWIRQPPGEGLEWIGAIDPKTGDTAYSESFQDRVTLTADKSTSTAYMELSSLTSEDTAVYYCTRFYSYTYWGQGTLVTVSSASTKGPSVFPLAPSSKSTSGGTAALGCLVKDYFPEPVTVSWNSGALTSGVHTFPAVLQSSGLYSLSSVVTVPSSSLGTQTYICNVNHKPSNTKVDKKVEPKSCDKTHTCPPCPAPEYLWGPSVFLFPPKPKDTLMISRTPEVTCVVVDVSHEDPEVKFNWYVDGVEVHNAKTKPREEQYNATYRVVSVLTVLHQDWLNGKEYKCKVSNKALPAPIEKTISKAKGQPREPQVYTLPPSRKELTKNQVSLTCLVKGFYPSDIAVEWESNGQPENNYKTTPPVLDSDGSFFLYSKLTVDKSRWQQGNVFSCSVMHEALHNRYTQKSLSLSP heavy 2: not shown light: DIVMTQSPLSLPVTPGEPASISCQASESLVHSNRNTYLHWYLQKPGQSPQLLIYKVSNRFSGVPDRFSGSGSGTDFTLKISRVEAEDVGVYYCSQNTHVPPTFGQGTKVEIERTVAAPSVFIFPPSDEQLKSGTASVVCLLNNFYPREAKVQWKVDNALQSGNSQESVTEQDSKDSTYSLSSTLTLSKADYEKHKVYACEVTHQGLSSPVTKSFNRGEC | 14 | 320 | 4500 |
